This data set addresses T1, MADS29-His (Oryza sativa) (UniProt Q6H711).
T1 sequence: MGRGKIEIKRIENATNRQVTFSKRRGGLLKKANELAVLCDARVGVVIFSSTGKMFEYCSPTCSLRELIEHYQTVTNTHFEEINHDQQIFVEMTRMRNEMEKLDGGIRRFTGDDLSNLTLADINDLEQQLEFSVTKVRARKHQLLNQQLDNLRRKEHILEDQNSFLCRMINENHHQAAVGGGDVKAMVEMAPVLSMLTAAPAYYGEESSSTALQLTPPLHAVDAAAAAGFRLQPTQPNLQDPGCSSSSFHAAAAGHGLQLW
Kind of data set: EMSA. To be noted: LightShift Chemiluminescent EMSA Kit per manufacturer; buffer, salt, pH and temperature not stated. In general terms: Mobility shift assays separate free from complexed probe on a gel.

Drawing on paper PMC7647119, this text covers binding for two sequences.

As to “ATTTTGCTCATTTGGTATAGATCTTTCTTACATATATAAGACTGATCTCTATAGTGGTGA (double strand) [POsAsp1 -1412 CArG probe]”, the binding result is “binds”.
In the case of “TCTATAGACTAGTCAGCATTTTTTTTAGCTCCATATTTGGATTTGTCAACTTCAGAAAAG (double strand) [POsAsp1 -770 CArG probe]”, the binding entry is “binds”.
